Bridge positions count the residues as written; N and C are the ends. Square brackets hold non-standard residues; d marks the D form. Ends that are not written are not given here. Glu‑DTPA‑Gd = N-terminal Glu-DTPA-Gd chelate (gadolinium DTPA complex on glutamic acid); bb‑DTPA gadolinium tetramer diacid = not defined here; AEEA = NCCOCCOCC(=O)O
What was measured:
human collagen type I = target: T1, human collagen type I (Homo sapiens, UniProt P02452+P08123); experiment: Dried collagen assay (DCA), percent bound to dried human collagen; type: binding
T1 construct: Acid soluble human collagen extracted from placenta; purchased Sigma C7774; host or cells: human placenta (tissue extract)
Protocol: Peptides identified using the phage-display protocol were screened using dried collagen assays (DCA) as described in A.-D. below.
Acid soluble human collagen extracted from placenta (Sigma, cat#C7774, lot#083K375) is dissolved in 15 mM HCl (3.5 mg/ml) by vortexing and gently shaking for 3-4 hours at 4° C. The acid soluble collagen is dissolved against PBS, pH 7.4 (three buffer exchanges are used). […] Percent gelation (fibril formation) of the collagen is determined by incubating 10 μM collagen (3.3 mg/ml) at 37° C. for 6 hours. A typical percent gelation is 60%.

rat collagen type I = target: T2, rat collagen type I (Rattus norvegicus, UniProt P02454+P02466); experiment: Dried collagen assay (DCA), percent bound to dried rat collagen; type: binding
T2 construct: Rat collagen (acid soluble, type I, rat tail); purchased Upstate USA, Inc 08-115; host or cells: rat tail (tissue extract)
Protocol: For the final assay, a 1:10 volume of 10×PBS (100 mM NaH2PO4, 1.5 M NaCl pH 7.4) is added to the collagen solution (final 1×PBS) and incubated at 37° C. for 2 hours. The gelation is typically 90%.

[1] = tested on: perfused Langendorff rat heart; experiment: Equilibrium binding to perfused Langendorff rat heart
Protocol: (§1) After deep anesthesia with pentobarbital (80 mg/kg ip), the chest cavity of a male Sprague Dawley rat (300 g) was opened, retracted and the heart was removed immediately and placed in an ice-cold normal Krebs-Henseleit (K-H) solution (NaCl, 118 mM; KCl, 4.7 mM; CaCl2, 2.5 mM; MgSO4, 1.2 mM; KH2PO4, 1.2 mM; NaHCO3, 25 mM; glucose, 5.5 mM). A K-H buffer filled 20 Gauge needle was inserted into the apex of the heart penetrating into the bottom of the chamber. This was attached to a pressure transducer used to record and monitor heart function. Perfusion pressure (˜60 mmHg) was monitored using a second transducer. The heart was perfused at a constant flow rate of 10-12 mL/min with 37° C. Krebs-Henseleit buffer saturated with a mixture of 95% O2 and 5% CO2 gas. The heart was paced at 300 beats/min.
Two peptide test articles, a high collagen binding peptide (SEQ ID NO: 144) and a low collagen binding peptide (SEQ ID NO: 173), are compared to GdDTPA. The appropriate test article was added to the K-H buffer solution to a total concentration of either 3 or 30 μM. Also added to the K-H buffer was a radiotracer analog of each peptide or GdDTPA. For the peptides, the radiotracer was an aliquot of the appropriate 1-125 labeled peptide derivative (see Example 5 for protocol). For GdDTPA, the tracer added was Tc-99m labeled DTPA. The amount of radioactivity added to the buffer solution was 1-5 μCi.
The heart was perfused for a period of 10 minutes and the perfusion solution was recycled through the heart. The total volume of K-H buffer used was 50-60 mL. After 10 min, the heart was removed from the apparatus and any connective tissue was removed. The heart was opened, fluid in the chambers drained, and the interior blotted dry with filter paper. The heart was then weighed and the radioactivity in the heart measured with a Packard Cobra 5003 Gamma Scintillation counter. An aliquot of the K-H buffer was also weighed and counted. Studies were performed at least in duplicate.
The dual peptide gadolinium tetramer (Compound ID 803) was compared to GdDTPA. Compound ID 803 and GdDTPA were added to the K-H buffer solution to a total concentration of 3 μM. Also added to the K-H buffer was a radiotracer analog of Compound ID 803 or GdDTPA. For Compound ID 803, the radiotracer was an aliquot of the In-111 labeled compound. For GdDTPA, the tracer added was Tc-99m labeled DTPA. The amount of radioactivity added to the buffer solution was 1-5 μCi.

[2] = tested on: perfused Langendorff rat heart; experiment: Washout kinetics from perfused Langendorff rat heart; conditions: perfusion with buffer for 10 minutes
Protocol: as §1
A Langendorff rat heart preparation was perfused with K-H buffer at a rate of 10-12 mL/min. A one mL solution containing SEQ ID NO: 144 (300 μM), radiolabeled (I-125) SEQ ID NO: 144 (1-6 μCi), GdDTPA (300 μM), and radiolabeled (Tc-99m) DTPA (5-8 μCi) was infused into the heart at a rate of 1 mL/min. After the infusion was finished, the heart was either removed or perfusion was allowed to continue for an additional 10 minutes and then the heart was removed. The perfusion buffer was not recirculated through the heart. After removal of any connective tissue, the heart was opened, fluid in the chambers drained, and the interior blotted dry with filter paper. The heart was then weighed and the radioactivity in the heart measured with a Packard Cobra 5003 Gamma Scintillation counter. […] An aliquot of the K-H buffer was also weighed and counted. Concentration estimates were decay corrected. Studies were performed at least in duplicate.
A Langendorff rat heart preparation was perfused with K-H buffer at a rate of 10-12 mL/min. […] The heart was then weighed and the radioactivity in the heart measured with a Packard Cobra 5003 Gamma Scintillation counter. […] An aliquot of the K-H buffer was also weighed and counted. […]

[3] = Table 2, TN-8 peptides, 5 μM peptide, PBS pH 7.4
[4] = Table 4, TN-10 peptides, 5 μM peptide, PBS pH 7.4
[5] = Table 13, TN-10 peptides with -G- linker, alanine scanning
[6] = Table 14, TN-6 peptides, D-amino acid scanning
[7] = Table 15, TN-10 peptides with -G- linker, D-amino acid scanning

T1 sequence (P02452 162-1218 limits assumed): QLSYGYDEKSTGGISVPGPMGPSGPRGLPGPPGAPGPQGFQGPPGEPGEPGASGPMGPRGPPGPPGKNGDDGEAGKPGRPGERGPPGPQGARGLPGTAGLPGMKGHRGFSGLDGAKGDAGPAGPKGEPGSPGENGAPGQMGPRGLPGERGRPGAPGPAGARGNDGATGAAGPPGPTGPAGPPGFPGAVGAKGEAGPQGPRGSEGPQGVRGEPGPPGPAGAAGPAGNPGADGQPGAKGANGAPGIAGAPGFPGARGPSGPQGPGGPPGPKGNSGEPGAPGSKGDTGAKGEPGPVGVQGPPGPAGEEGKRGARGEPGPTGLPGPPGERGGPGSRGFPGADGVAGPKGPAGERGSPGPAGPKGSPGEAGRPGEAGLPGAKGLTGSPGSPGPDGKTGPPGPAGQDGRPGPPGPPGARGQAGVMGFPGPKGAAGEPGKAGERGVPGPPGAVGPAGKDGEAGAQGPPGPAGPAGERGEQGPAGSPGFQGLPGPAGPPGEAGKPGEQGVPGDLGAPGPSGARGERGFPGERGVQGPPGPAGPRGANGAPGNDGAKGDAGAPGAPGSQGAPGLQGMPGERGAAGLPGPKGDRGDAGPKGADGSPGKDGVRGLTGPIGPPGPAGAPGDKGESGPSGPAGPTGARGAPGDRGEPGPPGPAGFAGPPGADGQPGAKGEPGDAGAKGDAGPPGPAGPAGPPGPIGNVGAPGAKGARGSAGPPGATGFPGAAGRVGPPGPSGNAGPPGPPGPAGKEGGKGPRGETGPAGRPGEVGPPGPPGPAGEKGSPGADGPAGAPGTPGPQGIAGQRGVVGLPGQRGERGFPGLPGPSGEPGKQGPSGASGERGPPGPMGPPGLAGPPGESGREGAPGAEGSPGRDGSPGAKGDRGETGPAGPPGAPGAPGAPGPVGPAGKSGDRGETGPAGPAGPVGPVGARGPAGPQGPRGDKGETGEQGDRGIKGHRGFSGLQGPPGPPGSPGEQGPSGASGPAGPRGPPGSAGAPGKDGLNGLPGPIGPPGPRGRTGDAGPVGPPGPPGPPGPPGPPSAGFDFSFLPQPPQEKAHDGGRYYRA
T1 sequence (P08123 80-1119 limits assumed): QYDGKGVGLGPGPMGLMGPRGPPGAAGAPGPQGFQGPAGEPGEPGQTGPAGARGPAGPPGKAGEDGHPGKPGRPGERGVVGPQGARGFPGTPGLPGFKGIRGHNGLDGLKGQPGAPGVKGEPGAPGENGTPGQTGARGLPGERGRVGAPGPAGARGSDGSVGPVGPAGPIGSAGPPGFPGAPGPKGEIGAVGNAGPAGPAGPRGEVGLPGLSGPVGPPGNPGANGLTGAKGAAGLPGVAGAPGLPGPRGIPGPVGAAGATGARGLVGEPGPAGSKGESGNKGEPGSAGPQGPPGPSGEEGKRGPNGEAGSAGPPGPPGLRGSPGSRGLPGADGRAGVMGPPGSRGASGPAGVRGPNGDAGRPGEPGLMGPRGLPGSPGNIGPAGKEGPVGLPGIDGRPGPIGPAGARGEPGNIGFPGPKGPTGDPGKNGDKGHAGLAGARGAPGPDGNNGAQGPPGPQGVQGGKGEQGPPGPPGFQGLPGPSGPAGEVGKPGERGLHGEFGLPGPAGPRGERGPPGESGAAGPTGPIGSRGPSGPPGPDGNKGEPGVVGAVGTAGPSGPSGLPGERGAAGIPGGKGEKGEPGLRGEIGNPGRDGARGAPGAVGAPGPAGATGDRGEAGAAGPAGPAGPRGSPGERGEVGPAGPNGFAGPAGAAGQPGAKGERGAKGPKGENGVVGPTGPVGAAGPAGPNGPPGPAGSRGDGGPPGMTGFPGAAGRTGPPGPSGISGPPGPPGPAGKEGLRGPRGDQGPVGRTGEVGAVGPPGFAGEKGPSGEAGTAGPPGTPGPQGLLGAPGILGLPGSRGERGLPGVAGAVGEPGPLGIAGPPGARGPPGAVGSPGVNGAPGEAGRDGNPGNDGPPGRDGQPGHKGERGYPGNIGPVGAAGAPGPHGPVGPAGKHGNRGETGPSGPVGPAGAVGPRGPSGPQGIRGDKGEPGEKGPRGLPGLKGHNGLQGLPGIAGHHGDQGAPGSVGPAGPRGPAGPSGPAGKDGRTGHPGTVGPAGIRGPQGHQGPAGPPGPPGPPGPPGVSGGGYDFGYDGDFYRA
T2 sequence (P02454 152-1207 limits assumed): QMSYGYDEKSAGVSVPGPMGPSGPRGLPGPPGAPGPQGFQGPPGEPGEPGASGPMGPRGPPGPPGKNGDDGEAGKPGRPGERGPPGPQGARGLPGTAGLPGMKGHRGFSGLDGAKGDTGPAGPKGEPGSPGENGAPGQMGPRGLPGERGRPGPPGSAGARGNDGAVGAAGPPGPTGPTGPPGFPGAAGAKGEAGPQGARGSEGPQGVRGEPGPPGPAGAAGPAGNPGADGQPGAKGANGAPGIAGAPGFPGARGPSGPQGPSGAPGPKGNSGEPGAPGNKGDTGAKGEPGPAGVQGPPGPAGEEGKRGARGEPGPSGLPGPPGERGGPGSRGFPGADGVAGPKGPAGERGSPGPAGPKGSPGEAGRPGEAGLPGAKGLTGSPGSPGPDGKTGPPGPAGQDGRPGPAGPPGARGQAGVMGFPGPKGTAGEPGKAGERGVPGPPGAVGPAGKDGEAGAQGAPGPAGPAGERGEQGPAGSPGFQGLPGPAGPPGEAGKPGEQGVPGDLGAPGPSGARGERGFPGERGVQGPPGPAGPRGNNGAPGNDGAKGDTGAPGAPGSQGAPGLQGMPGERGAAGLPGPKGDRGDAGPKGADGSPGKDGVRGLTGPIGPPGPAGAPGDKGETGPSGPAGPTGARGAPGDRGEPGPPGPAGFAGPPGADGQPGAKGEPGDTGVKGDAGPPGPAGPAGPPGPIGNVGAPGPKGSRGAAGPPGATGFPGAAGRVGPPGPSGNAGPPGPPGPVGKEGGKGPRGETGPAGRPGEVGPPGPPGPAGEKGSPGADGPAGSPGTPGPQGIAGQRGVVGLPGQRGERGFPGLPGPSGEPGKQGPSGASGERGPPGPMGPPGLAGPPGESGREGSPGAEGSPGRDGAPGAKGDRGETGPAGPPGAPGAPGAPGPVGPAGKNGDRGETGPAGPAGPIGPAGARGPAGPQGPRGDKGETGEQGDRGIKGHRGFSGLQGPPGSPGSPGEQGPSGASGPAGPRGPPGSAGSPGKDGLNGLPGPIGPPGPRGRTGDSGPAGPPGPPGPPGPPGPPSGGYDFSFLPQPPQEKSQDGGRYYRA
T2 sequence (P02466 86-1125 limits assumed): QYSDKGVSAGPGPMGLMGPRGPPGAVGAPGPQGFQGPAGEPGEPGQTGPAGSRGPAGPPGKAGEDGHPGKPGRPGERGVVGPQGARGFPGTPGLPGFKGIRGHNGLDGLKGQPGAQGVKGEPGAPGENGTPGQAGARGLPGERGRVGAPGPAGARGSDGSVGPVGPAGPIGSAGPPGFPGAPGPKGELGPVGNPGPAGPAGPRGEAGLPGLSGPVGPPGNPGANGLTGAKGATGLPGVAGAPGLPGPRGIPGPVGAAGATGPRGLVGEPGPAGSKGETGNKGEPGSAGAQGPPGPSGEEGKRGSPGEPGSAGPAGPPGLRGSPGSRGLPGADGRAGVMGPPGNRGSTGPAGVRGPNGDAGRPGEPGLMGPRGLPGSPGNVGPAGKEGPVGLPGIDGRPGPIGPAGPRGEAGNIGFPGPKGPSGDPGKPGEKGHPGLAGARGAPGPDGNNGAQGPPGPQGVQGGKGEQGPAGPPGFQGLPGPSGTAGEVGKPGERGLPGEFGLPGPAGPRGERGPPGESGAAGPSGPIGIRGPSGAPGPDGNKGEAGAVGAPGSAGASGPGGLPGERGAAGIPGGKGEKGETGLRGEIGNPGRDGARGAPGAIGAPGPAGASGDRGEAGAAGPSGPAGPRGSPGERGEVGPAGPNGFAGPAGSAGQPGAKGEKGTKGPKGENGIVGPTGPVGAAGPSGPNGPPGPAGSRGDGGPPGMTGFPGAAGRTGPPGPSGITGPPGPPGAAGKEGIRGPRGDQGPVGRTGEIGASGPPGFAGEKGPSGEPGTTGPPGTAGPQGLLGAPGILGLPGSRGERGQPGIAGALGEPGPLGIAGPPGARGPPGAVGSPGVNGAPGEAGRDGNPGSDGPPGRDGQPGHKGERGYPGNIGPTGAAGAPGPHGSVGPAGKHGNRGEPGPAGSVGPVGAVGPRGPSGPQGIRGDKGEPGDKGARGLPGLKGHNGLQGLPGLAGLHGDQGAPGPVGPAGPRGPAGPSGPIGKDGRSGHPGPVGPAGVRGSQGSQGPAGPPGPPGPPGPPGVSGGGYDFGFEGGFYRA

## 2 (WGWCEWAQNNCWNY) [compound 2]
Human collagen type I; [3]
  Dried Human Collagen Binding: 14%

## 3 (PWWCHEMPSMCFGF) [compound 3]
Human collagen type I; [3]
  Dried Human Collagen Binding: 2%

## 36 (SWSCGGDHNAWKCQYS) [compound 36]
Human collagen type I; [4]
  Dried Human Collagen Binding: 7%

## 37 (LWNCHGTDANWKCVLN) [compound 37]
Human collagen type I; [4]
  Dried Human Collagen Binding: 7%

## 38 (GWSCHGDAADWPCQWS) [compound 38]
Human collagen type I; [4]
  Dried Human Collagen Binding: 6%

## 39 (GWQCSGDASVWNCDWI) [compound 39]
Human collagen type I; [4]
  Dried Human Collagen Binding: 6%

## 65 (KWECVHTKGEWYCETK) [compound 65]
Human collagen type I; [4]
  Dried Human Collagen Binding: 7%

## 112 (AKACSVHDEFGCLIS; disulfide 4-12 (inferred); not fully specified (C-terminus)) [compound 112]
Human collagen type I; Table 8, TN-9 peptides
  Dried Human Collagen Binding: 9%

## 113 (FSECVWVNAYQCEYF; disulfide 4-12 (inferred); not fully specified (C-terminus)) [compound 113]
Human collagen type I; Table 8, TN-9 peptides
  Dried Human Collagen Binding: 3%

## 130 (WWACQKGRHDWEKCRWL; disulfide 4-14 (inferred); not fully specified (C-terminus)) [compound 130]
Human collagen type I; Table 11, TN-11 peptides
  Dried Human Collagen Binding: 32%

## 137 (YHACYQAGCWAW; disulfide 4-9 (inferred); not fully specified (C-terminus)) [compound 137]
Rat collagen type I; Table 12, TN-6 peptides, alanine scanning
  % Collagen Binding Dried Rat: 7%

## 142 (QWTCSADEYTWHCNYE; disulfide 4-13 (inferred); not fully specified (C-terminus)) [compound 142]
Rat collagen type I; [5]
  % Collagen Binding Dried Rat: 6%

## 147 (QWTCSGDEYTAHCNYE; disulfide 4-13 (inferred); not fully specified (C-terminus)) [compound 147]
Human collagen type I; [5]
  % Collagen Binding Dried Human: 5%

## 159 (YHACYQAGCWIW) [compound 159]
Human collagen type I; [6]
  % Collagen Binding Dried Human: 7%

## 163 (YHACYQAGCWIW) [compound 163]
Rat collagen type I; [6]
  % Collagen Binding Dried Rat: 53%

## 165 (QWTCSGDEYTWHCNYE) [compound 165]
Rat collagen type I; [7]
  % Collagen Binding Dried Rat: 4%
Human collagen type I; [7]
  % Collagen Binding Dried Human: 2%

## 166 (QWTCSGDEYTWHCNYE) [compound 166]
Rat collagen type I; [7]
  % Collagen Binding Dried Rat: 3%
Human collagen type I; [7]
  % Collagen Binding Dried Human: 2%

## 167 (QWTCSGDEYTWHCNYE) [compound 167]
Human collagen type I; [7]
  % Collagen Binding Dried Human: 4%

## 168 (QWTCSGDEYTWHCNYE) [compound 168]
Rat collagen type I; [7]
  % Collagen Binding Dried Rat: 2%
Human collagen type I; [7]
  % Collagen Binding Dried Human: 3%

## 169 (QWTCSGDEYTWHCNYE) [compound 169]
Rat collagen type I; [7]
  % Collagen Binding Dried Rat: 4%

## 171 (QWTCSGDEYTWHCNYE) [compound 171]
Rat collagen type I; [7]
  % Collagen Binding Dried Rat: 6%

## 173 (QWTCSGDEYTWHCNYE) [compound 173]
Rat collagen type I; [7]
  % Collagen Binding Dried Rat: 4%
Human collagen type I; [7]
  % Collagen Binding Dried Human: 5%

## 174 (QWTCSGDEYTWHCNYE) [compound 174]
Human collagen type I; [7]
  % Collagen Binding Dried Human: 5%

## 175 (QWTCSGDEYTWHCNYE) [compound 175]
Rat collagen type I; [7]
  % Collagen Binding Dried Rat: 2%
Human collagen type I; [7]
  % Collagen Binding Dried Human: 2%

## 176 (QWTCSGDEYTWHCNYE) [compound 176]
Rat collagen type I; [7]
  % Collagen Binding Dried Rat: 2%
Human collagen type I; [7]
  % Collagen Binding Dried Human: 2%

## 190 ({Glu‑DTPA‑Gd-AEEA}-GQWTCSGDEYTWHCNY[dE]-NH2; disulfide 5-14 (inferred); also: gadolinium complex of Glu-DTPA) [compound 190]
Rat collagen type I; Table 17, chelate conjugates
  % Binding Collagen I Rat: 5%

## CC(C)C[C@H](NC(=O)[C@@H]1CSSC[C@H](NC(=O)[C@H](Cc2c[nH]cn2)NC(=O)[C@H](Cc2c[nH]c3ccccc23)NC(=O)[C@H](CCC(N)=O)NC(=O)CNC(=O)CC[C@H](NC(=O)[C@H](CNC(=O)[C@@H](CN(CCN(CC(=O)O)CC(=O)O)CC(=O)O)N(CC(=O)O)CC(=O)O)NC(=O)[C@@H](CN(CCN(CC(=O)O)CC(=O)O)CC(=O)O)N(CC(=O)O)CC(=O)O)C(=O)NCCCCCCNC(=O)[C@H](CCC(=O)NCC(=O)N[C@@H](CCC(N)=O)C(=O)N[C@@H](Cc2c[nH]c3ccccc23)C(=O)N[C@@H](Cc2c[nH]cn2)C(=O)N[C@H]2CSSC[C@@H](C(=O)N[C@@H](CC(C)C)C(=O)N[C@@H](Cc3ccc(O)cc3)C(=O)NCC(N)=O)NC(=O)[C@H](Cc3ccc(O)cc3)NC(=O)[C@H](Cc3c[nH]cn3)NC(=O)[C@H](Cc3c[nH]cn3)NC(=O)[C@@H]3CCCN3C(=O)[C@H](Cc3ccccc3)NC(=O)[C@H](CO)NC(=O)[C@H]([C@@H](C)O)NC(=O)[C@H]([C@@H](C)O)NC2=O)NC(=O)[C@H](CNC(=O)[C@@H](CN(CCN(CC(=O)O)CC(=O)O)CC(=O)O)N(CC(=O)O)CC(=O)O)NC(=O)[C@@H](CN(CCN(CC(=O)O)CC(=O)O)CC(=O)O)N(CC(=O)O)CC(=O)O)C(=O)N[C@@H]([C@@H](C)O)C(=O)N[C@@H]([C@@H](C)O)C(=O)N[C@@H](CO)C(=O)N[C@@H](Cc2ccccc2)C(=O)N2CCC[C@H]2C(=O)N[C@@H](Cc2c[nH]cn2)C(=O)N[C@@H](Cc2c[nH]cn2)C(=O)N[C@@H](Cc2ccc(O)cc2)C(=O)N1)C(=O)N[C@@H](Cc1ccc(O)cc1)C(=O)NCC(N)=O [Comp ID 803]
[1]; 10 min recirculating perfusion, 3 μM in K-H buffer, radiotracer counting
  Heart: 9.1 ± 1.8 nmol/g
[1]; 10 min recirculating perfusion, buffer 3.0 μM
  Heart:Buffer: 3.02 ± 0.62

## Compound ID 803: dual peptide gadolinium tetramer; bb-DTPA tetramer diacid coupled to N-terminus of SEQ ID NO. 264 peptide ({bb‑DTPA gadolinium tetramer diacid}-GQWHCTTSFPHHYCLYG; disulfide 5-14 (inferred); not fully specified (C-terminus); printed as G-Q-W-H-C-T-T-S-F-P-H-H-Y-C-L-Y-G; reading uncertain; also: dual peptide tetramer: two peptide chains on one diacid, Gd chelated) [dual peptide gadolinium tetramer; 264 peptide]
[1]; 10 minutes
  heart uptake relative to GdDTPA: about 7 times
[2]
  amount remaining in heart at 10 minutes after infusion relative to 0 minutes post infusion: 54%

From patent US9386938B2, “Methods for collagen imaging” (Collagen Medical, LLC, priority 2005, dated 2016)
